# Measurements reported in article PMC9073318 (Plant Communications, 2022).
# T1: TaPAPhy_b2 (Triticum aestivum, UniProt F6MIW5)
# T1 sequence (F6MIW5 21-530): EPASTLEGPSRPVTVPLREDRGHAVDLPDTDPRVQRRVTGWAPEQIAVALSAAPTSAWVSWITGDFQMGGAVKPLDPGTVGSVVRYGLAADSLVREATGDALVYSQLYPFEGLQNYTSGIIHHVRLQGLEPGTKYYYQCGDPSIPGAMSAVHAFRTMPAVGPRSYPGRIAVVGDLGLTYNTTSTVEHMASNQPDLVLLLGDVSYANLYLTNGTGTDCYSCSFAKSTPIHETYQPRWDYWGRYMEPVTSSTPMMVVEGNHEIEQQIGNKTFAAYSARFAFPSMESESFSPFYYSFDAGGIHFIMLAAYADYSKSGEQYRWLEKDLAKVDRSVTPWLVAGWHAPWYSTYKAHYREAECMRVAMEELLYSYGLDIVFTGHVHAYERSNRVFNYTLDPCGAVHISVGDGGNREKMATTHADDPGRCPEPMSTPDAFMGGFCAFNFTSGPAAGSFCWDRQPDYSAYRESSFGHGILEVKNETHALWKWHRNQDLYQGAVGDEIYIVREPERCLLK
# B1: TaPAPhy_b2 (Triticum aestivum) (protein)
# chain: EPASTLEGPSRPVTVPLREDRGHAVDLPDTDPRVQRRVTGWAPEQIAVALSAAPTSAWVSWITGDFQMGGAVKPLDPGTVGSVVRYGLAADSLVREATGDALVYSQLYPFEGLQNYTSGIIHHVRLQGLEPGTKYYYQCGDPSIPGAMSAVHAFRTMPAVGPRSYPGRIAVVGDLGLTYNTTSTVEHMASNQPDLVLLLGDVSYANLYLTNGTGTDCYSCSFAKSTPIHETYQPRWDYWGRYMEPVTSSTPMMVVEGNHEIEQQIGNKTFAAYSARFAFPSMESESFSPFYYSFDAGGIHFIMLAAYADYSKSGEQYRWLEKDLAKVDRSVTPWLVAGWHAPWYSTYKAHYREAECMRVAMEELLYSYGLDIVFTGHVHAYERSNRVFNYTLDPCGAVHISVGDGGNREKMATTHADDPGRCPEPMSTPDAFMGGFCAFNFTSGPAAGSFCWDRQPDYSAYRESSFGHGILEVKNETHALWKWHRNQDLYQGAVGDEIYIVREPERCLLK
# B2: TaPAPhy_b2 (Triticum aestivum; K430A) (protein)
# chain: EPASTLEGPSRPVTVPLREDRGHAVDLPDTDPRVQRRVTGWAPEQIAVALSAAPTSAWVSWITGDFQMGGAVKPLDPGTVGSVVRYGLAADSLVREATGDALVYSQLYPFEGLQNYTSGIIHHVRLQGLEPGTKYYYQCGDPSIPGAMSAVHAFRTMPAVGPRSYPGRIAVVGDLGLTYNTTSTVEHMASNQPDLVLLLGDVSYANLYLTNGTGTDCYSCSFAKSTPIHETYQPRWDYWGRYMEPVTSSTPMMVVEGNHEIEQQIGNKTFAAYSARFAFPSMESESFSPFYYSFDAGGIHFIMLAAYADYSKSGEQYRWLEKDLAKVDRSVTPWLVAGWHAPWYSTYKAHYREAECMRVAMEELLYSYGLDIVFTGHVHAYERSNRVFNYTLDPCGAVHISVGDGGNREAMATTHADDPGRCPEPMSTPDAFMGGFCAFNFTSGPAAGSFCWDRQPDYSAYRESSFGHGILEVKNETHALWKWHRNQDLYQGAVGDEIYIVREPERCLLK
# B3: TaPAPhy_b2 (Triticum aestivum; K368A) (protein)
# chain: EPASTLEGPSRPVTVPLREDRGHAVDLPDTDPRVQRRVTGWAPEQIAVALSAAPTSAWVSWITGDFQMGGAVKPLDPGTVGSVVRYGLAADSLVREATGDALVYSQLYPFEGLQNYTSGIIHHVRLQGLEPGTKYYYQCGDPSIPGAMSAVHAFRTMPAVGPRSYPGRIAVVGDLGLTYNTTSTVEHMASNQPDLVLLLGDVSYANLYLTNGTGTDCYSCSFAKSTPIHETYQPRWDYWGRYMEPVTSSTPMMVVEGNHEIEQQIGNKTFAAYSARFAFPSMESESFSPFYYSFDAGGIHFIMLAAYADYSKSGEQYRWLEKDLAKVDRSVTPWLVAGWHAPWYSTYAAHYREAECMRVAMEELLYSYGLDIVFTGHVHAYERSNRVFNYTLDPCGAVHISVGDGGNREKMATTHADDPGRCPEPMSTPDAFMGGFCAFNFTSGPAAGSFCWDRQPDYSAYRESSFGHGILEVKNETHALWKWHRNQDLYQGAVGDEIYIVREPERCLLK
# Assays:
# TaPAPhy_b2 [1] = molecular target: T1, TaPAPhy_b2; parameters: gene TRAES_3BF026700100CFD_c1; conditions: deglycosylated enzyme; product-bound state 1.42 A; bound to both irons (second structure, substrate-bound state, 1.54 A: 6GIZ)
# TaPAPhy_b2 [2] = molecular target: T1, TaPAPhy_b2; assay: X-ray crystal structure of soaked crystal; assay type: binding; parameters: gene TRAES_3BF026700100CFD_c1; signal peptide (20 aa) and C-terminal 7-aa ER-retention signal removed; alpha-factor secretion signal, C-terminal 6xHis; Pichia pastoris KM71H (OCH1::G418R); 510 residues, Fe-Fe centre; glycosylated for assays, Endo F1 deglycosylated for crystals; conditions: 5 mM InsS6 soak, pH 5.5; deglycosylated enzyme; site adjacent to active centre (standby mode), phosphate at catalytic centre
# purified protein = substrate: O=P(O)(O)O[C@H]1[C@H](OP(=O)(O)O)[C@@H](OP(=O)(O)O)[C@H](OP(=O)(O)O)[C@@H](OP(=O)(O)O)[C@H]1OP(=O)(O)O; assay: purified protein; conditions: 0.2 M acetate pH 5.5, glycosylated enzyme
Molecule,X-ray crystal structure (TaPAPhy_b2 [1]),X-ray crystal structure of soaked crystal (TaPAPhy_b2 [2]),Km (purified protein),kcat (purified protein)
O=P(O)(O)O [phosphate],A phosphate ion is bound to the two metal ions,–,–,–
"O=S(=O)(O)O[C@H]1[C@H](OS(=O)(=O)O)[C@@H](OS(=O)(=O)O)[C@H](OS(=O)(=O)O)[C@@H](OS(=O)(=O)O)[C@H]1OS(=O)(=O)O [InsS6, myo-inositol hexakissulfate]",–,it binds at a site immediately adjacent to the active center,–,–
B1,–,–,76.4 ± 7.7 µM,23.8 ± 0.9 s⁻¹
B2,–,–,307.6 ± 56.7 µM,3.1 ± 0.3 s⁻¹
B3,–,–,214.6 ± 46.6 µM,28.4 ± 3.0 s⁻¹
